{"source": "patent US20250277029A1", "about": "(Amgen, published 2025)", "data": [{"target": "human cannabinoid receptor 1 (huCB1), full length, expressed on cells (human, UniProt P21554 1-472)", "sequence (P21554 whole entry)": "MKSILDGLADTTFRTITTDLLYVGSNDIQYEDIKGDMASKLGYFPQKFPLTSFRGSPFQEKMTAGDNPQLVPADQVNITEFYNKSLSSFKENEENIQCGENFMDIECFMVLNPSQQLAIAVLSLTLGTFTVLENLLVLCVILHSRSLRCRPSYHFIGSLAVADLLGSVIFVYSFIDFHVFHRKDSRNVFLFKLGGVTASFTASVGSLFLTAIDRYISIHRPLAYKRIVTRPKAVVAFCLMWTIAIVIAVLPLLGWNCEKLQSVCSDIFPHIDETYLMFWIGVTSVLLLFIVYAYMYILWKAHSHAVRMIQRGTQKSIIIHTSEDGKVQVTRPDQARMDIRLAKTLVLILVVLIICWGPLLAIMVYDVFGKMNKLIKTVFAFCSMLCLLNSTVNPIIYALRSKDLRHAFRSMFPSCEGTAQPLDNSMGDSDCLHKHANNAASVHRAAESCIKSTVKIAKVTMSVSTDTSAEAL", "test": "cell-based or functional assay", "units": {"Mean IC50 (nM), cAMP antagonist assay": "nM", "Mean IC50, -fold vs Rimo": "fold vs Rimonabant", "n = 1 IC50 (nM), cAMP antagonist assay": "nM", "n = 1 IC50, -fold vs Rimo": "fold vs Rimonabant", "n = 2 IC50 (nM), cAMP antagonist assay": "nM", "n = 2 IC50, -fold vs Rimo": "fold vs Rimonabant"}, "values": [{"binder": "LIBC527869-1 (antibody, V domains shown) VH: QVQLQESGPGLVKPSQTLSLTCTVSGGNIRRGGDYWAWIRQHPGKGLEWIGHIYHTGKTNYNPSFKGRATISVKTYKNQFSLKLSSVTAADTAVYYCARNYDTLSGNSYYYYGMDVWGQGTTVTVSS VL: DIQLTQSPSTLSASVGDRVTITCRASQSISNYLNWYQQKPGKAPKLLIYAASSLHSGVPSRFSGSGSGTDFTLTISSLQPEDFASYYCQQYQSYPLTFGQGTKVEIKR", "Mean IC50 (nM), cAMP antagonist assay": 47, "Mean IC50, -fold vs Rimo": 15.7, "n = 1 IC50 (nM), cAMP antagonist assay": 57.8, "n = 1 IC50, -fold vs Rimo": 13.7, "n = 2 IC50 (nM), cAMP antagonist assay": 36.2, "n = 2 IC50, -fold vs Rimo": 20.2}, {"binder": "LIBC523844-1 (antibody, V domains shown) VH: QVQLQESGPGLVKPSQTLSLTCTVSGGSIRRGGDYWSWIRQHPGKGLEWIGHVYYTGSTKYNPSFKDRATISVNTYKNQFSLKLSSVTAADTAVYYCARDYDILTGYSYYYYGMDVWGQGTTVTVSS VL: DIVMTQSPLSLPVTPGEPASISCRSSQSLLSSSGANYVDWYLQKPGQSPQLLIYQGSNRASGVPDRFSGSGSGTDFTLKISRVEAEDVGVYYCRQARALPRTFGQGTKVEIKR", "Mean IC50 (nM), cAMP antagonist assay": 3.83, "Mean IC50, -fold vs Rimo": 1.28, "n = 1 IC50 (nM), cAMP antagonist assay": 6.2, "n = 1 IC50, -fold vs Rimo": 1.47, "n = 2 IC50 (nM), cAMP antagonist assay": 1.46, "n = 2 IC50, -fold vs Rimo": 0.82}, {"binder": "LIBC523969-1 (antibody, V domains shown) VH: QVQLQESGPGLVKPSQTLSLTCTVSGGSIRRGGDYWSWIRQHPGKGLEWIGHIYQTGQTKYNPNLKGRATISVNTYKNQFSLKLSSVTAADTAVYYCARDYDILTGYSYYYYGMDVWGQGTTVTVSS VL: DIVMTQSPLSLPVTPGEPASISCRSSQSLLSSTGANYLDWYLQKPGQSPQLLIYQGSNRASGVPDRFSGSGSGTDFTLKISRVEAEDVGVYYCRQAVGLPRTFGQGTKVEIKR", "Mean IC50 (nM), cAMP antagonist assay": 3.86, "Mean IC50, -fold vs Rimo": 1.29, "n = 1 IC50 (nM), cAMP antagonist assay": 6.45, "n = 1 IC50, -fold vs Rimo": 1.53, "n = 2 IC50 (nM), cAMP antagonist assay": 1.26, "n = 2 IC50, -fold vs Rimo": 0.7}, {"binder": "LIBC523760-1 (antibody, V domains shown) VH: QVQLQESGPGLVKPSQTLSLTCTVSGGSIRRGGDYWSWIRQHPGKGLEWIGHVYQTGSTKYNPKFKGRATISVNTYKNQFSLKLSSVTAADTAVYYCARDYDILTGYSYYYYGMDVWGQGTTVTVSS VL: DIVMTQSPLSLPVTPGEPASISCRSSQSLLTSSGANYVDWYLQKPGQSPQLLIYLGSNRASGVPDRFSGSGSGTDFTLKISRVEAEDVGVYYCRQAVGTPRTFGQGTKVEIKR", "Mean IC50 (nM), cAMP antagonist assay": 4.28, "Mean IC50, -fold vs Rimo": 1.43, "n = 1 IC50 (nM), cAMP antagonist assay": 6.12, "n = 1 IC50, -fold vs Rimo": 1.45, "n = 2 IC50 (nM), cAMP antagonist assay": 2.44, "n = 2 IC50, -fold vs Rimo": 1.36}, {"binder": "LIBC523603-1 (antibody, V domains shown) VH: QVQLQESGPGLVKPSQTLSLTCTVSGGSIRRGGDYWAWIRQHPGKGLEWIGHVYQSGQTAYNPNFENRATISVNTYKNQFSLKLSSVTAADTAVYYCARDYDAVSGYSYYYYGMDVWGQGTTVTVSS VL: DIVMTQSPLSLPVTPGEPASISCRSSQSLLSSYGNNYVDWYLQKPGQSPQLLIYQGSNRASGVPDRFSGSGSGTDFTLKISRVEAEDVGVYYCRQAVGLPRTFGQGTKVEIKR", "Mean IC50 (nM), cAMP antagonist assay": 4.72, "Mean IC50, -fold vs Rimo": 1.57, "n = 1 IC50 (nM), cAMP antagonist assay": 7.29, "n = 1 IC50, -fold vs Rimo": 1.73, "n = 2 IC50 (nM), cAMP antagonist assay": 2.16, "n = 2 IC50, -fold vs Rimo": 1.2}, {"binder": "LIBC523813-1 (antibody, V domains shown) VH: QVQLQESGPGLVKPSQTLSLTCTVSGGSIRRGGDYWSWIRQHPGKGLEWIGHVYYTGQTAYNPKFKDRATISVKTYKNQFSLKLSSVTAADTAVYYCARDYDILTGYSYYYYGMDVWGQGTTVTVSS VL: DIVMTQSPLSLPVTPGEPASISCRSSQSLLSSSGANYVDWYLQKPGQSPQLLIYLGSNRASGVPDRFSGSGSGTDFTLKISRVEAEDVGVYYCMQARGIPRTFGQGTKVEIKR", "Mean IC50 (nM), cAMP antagonist assay": 5.95, "Mean IC50, -fold vs Rimo": 1.98, "n = 1 IC50 (nM), cAMP antagonist assay": 8.96, "n = 1 IC50, -fold vs Rimo": 2.13, "n = 2 IC50 (nM), cAMP antagonist assay": 2.94, "n = 2 IC50, -fold vs Rimo": 1.64}, {"binder": "LIBC523670-1 (antibody, V domains shown) VH: QVQLQESGPGLVKPSQTLSLTCTVSGGSIRRGGDYWAWIRQHPGKGLEWIGHVYQTGQTAYNPNLESRATISVNTYKNQFSLKLSSVTAADTAVYYCARNYDVLSGYSYYYYGMDVWGQGTTVTVSS VL: DIVMTQSPLSLPVTPGEPASISCRSSQSLLTSYGANYLDWYLQKPGQSPQLLIYQGSNRASGVPDRFSGSGSGTDFTLKISRVEAEDVGVYYCMQALQIPRTFGQGTKVEIKR", "Mean IC50 (nM), cAMP antagonist assay": 6.12, "Mean IC50, -fold vs Rimo": 2.04, "n = 1 IC50 (nM), cAMP antagonist assay": 8.72, "n = 1 IC50, -fold vs Rimo": 2.07, "n = 2 IC50 (nM), cAMP antagonist assay": 3.52, "n = 2 IC50, -fold vs Rimo": 1.97}, {"binder": "LIBC523748-1 (antibody, V domains shown) VH: QVQLQESGPGLVKPSQTLSLTCTVSGGSIRRGGDYWSWIRQHPGKGLEWIGHVYYTGSTKYNPSFEGRATISVKTYKNQFSLKLSSVTAADTAVYYCARDYDILTGYSYYYYGMDVWGQGTTVTVSS VL: not shown", "Mean IC50 (nM), cAMP antagonist assay": 7, "Mean IC50, -fold vs Rimo": 2.33, "n = 1 IC50 (nM), cAMP antagonist assay": 9.57, "n = 1 IC50, -fold vs Rimo": 2.27, "n = 2 IC50 (nM), cAMP antagonist assay": 4.43, "n = 2 IC50, -fold vs Rimo": 2.48}, {"binder": "LIBC523862-1 (antibody, V domains shown) VH: QVQLQESGPGLVKPSQTLSLTCTVSGGSIRRGGDYWSWIRQHPGKGLEWIGHIYQTGSTAYNPSLKGRATISVNTYKNQFSLKLSSVTAADTAVYYCARDYDILTGYSYYYYGMDVWGQGTTVTVSS VL: DIVMTQSPLSLPVTPGEPASISCRSSQSLLHSTGANYVDWYLQKPGQSPQLLIYLGSNRASGVPDRFSGSGSGTDFTLKISRVEAEDVGVYYCRQAIALPRTFGQGTKVEIKR", "Mean IC50 (nM), cAMP antagonist assay": 7.31, "Mean IC50, -fold vs Rimo": 2.44, "n = 1 IC50 (nM), cAMP antagonist assay": 11.2, "n = 1 IC50, -fold vs Rimo": 2.66, "n = 2 IC50 (nM), cAMP antagonist assay": 3.42, "n = 2 IC50, -fold vs Rimo": 1.91}, {"binder": "LIBC523868-1 (antibody, V domains shown) VH: QVQLQESGPGLVKPSQTLSLTCTVSGGSIRRGGDYWSWIRQHPGKGLEWIGHVYYEGSTAYNPSFEDRATISVNTYKNQFSLKLSSVTAADTAVYYCARDYDILTGYSYYYYGMDVWGQGTTVTVSS VL: DIVMTQSPLSLPVTPGEPASISCRSSQSLLTSYGINYVDWYLQKPGQSPQLLIYLGSNRASGVPDRFSGSGSGTDFTLKISRVEAEDVGVYYCMQARQIPRTFGQGTKVEIKR", "Mean IC50 (nM), cAMP antagonist assay": 7.59, "Mean IC50, -fold vs Rimo": 2.53, "n = 1 IC50 (nM), cAMP antagonist assay": 11.9, "n = 1 IC50, -fold vs Rimo": 2.81, "n = 2 IC50 (nM), cAMP antagonist assay": 3.32, "n = 2 IC50, -fold vs Rimo": 1.86}, {"binder": "LIBC523857-1 (antibody, V domains shown) VH: QVQLQESGPGLVKPSQTLSLTCTVSGGSIRRGGDYWSWIRQHPGKGLEWIGHIYQTGQTAYNPRLEGRATISVNTYKNQFSLKLSSVTAADTAVYYCARDYDILTGYSYYYYGMDVWGQGTTVTVSS VL: DIVMTQSPLSLPVTPGEPASISCRSSQSLLSSTGANYLDWYLQKPGQSPQLLIYLGSNRASGVPDRFSGSGSGTDFTLKISRVEAEDVGVYYCRQAVELPRTFGQGTKVEIKR", "Mean IC50 (nM), cAMP antagonist assay": 7.94, "Mean IC50, -fold vs Rimo": 2.65, "n = 1 IC50 (nM), cAMP antagonist assay": 13.4, "n = 1 IC50, -fold vs Rimo": 3.18, "n = 2 IC50 (nM), cAMP antagonist assay": 2.48, "n = 2 IC50, -fold vs Rimo": 1.39}, {"binder": "LIBC523596-1 (antibody, V domains shown) VH: QVQLQESGPGLVKPSQTLSLTCTVSGGSIRRGGDYWSWIRQHPGKGLEWIGHVYQSGQTAYNPNFEDRATISVNTYKNQFSLKLSSVTAADTAVYYCAREYDVVSGYSYYYYGMDVWGQGTTVTVSS VL: DIVMTQSPLSLPVTPGEPASISCRSSQSLLTSSGYNYVDWYLQKPGQSPQLLIYQGSNRASGVPDRFSGSGSGTDFTLKISRVEAEDVGVYYCMQAVKIPRTFGQGTKVEIKR", "Mean IC50 (nM), cAMP antagonist assay": 8.99, "n = 2 IC50 (nM), cAMP antagonist assay": 4}, {"binder": "LIBC527984-1 (antibody, V domains shown) VH: QVQLQESGPGLVKPSQTLSLTCTVSGGSIRRGGDYWSWIRQHPGKGLEWIGHIYQTGKTNYNPNFKSRATISVNTYKNQFSLKLSSVTAADTAVYYCARDYDILTGYSYYYYGMDVWGQGTTVTVSS VL: DIQMTQSPSTLSASVGDRVTITCRASQSISNYLNWYQQKPGKAPKLLIYAASSLHSGVPSRFSGSGSGTDFTLTISSLQPEDFASYYCQQYQSYPLTFGQGTKVEIKR", "Mean IC50 (nM), cAMP antagonist assay": 4.25, "Mean IC50, -fold vs Rimo": 1.42, "n = 1 IC50 (nM), cAMP antagonist assay": 7.24, "n = 1 IC50, -fold vs Rimo": 1.72, "n = 2 IC50 (nM), cAMP antagonist assay": 1.27, "n = 2 IC50, -fold vs Rimo": 0.71}, {"binder": "LIBC527879-1 (antibody, V domains shown) VH: QVQLQESGPGLVKPSQTLSLTCTVSGGSIRRGGDYWGWIRQHPGKGLEWIGHIYQSGSTNYNPKLKSRATISVDTYKNQFSLKLSSVTAADTAVYYCARDYDIFTGYSYYYYGMDVWGQGTTVTVSS VL: DIQLTQSPSSLSASVGDRVTITCRASQSIISYLNWYQQKPGKAPKLLIYAASSLRSGVPSRFSGSGSGTDFTLTISSLQPEDFATYYCQQYSNYPLTFGGGTRVEIKR", "Mean IC50 (nM), cAMP antagonist assay": 3.95, "Mean IC50, -fold vs Rimo": 1.32, "n = 1 IC50 (nM), cAMP antagonist assay": 6.12, "n = 1 IC50, -fold vs Rimo": 1.45, "n = 2 IC50 (nM), cAMP antagonist assay": 1.78, "n = 2 IC50, -fold vs Rimo": 0.99}, {"binder": "LIBC528131-1 (antibody, V domains shown) VH: QVQLQESGPGLVKPSQTLSLTCTVSGGSIRRGGDYWSWIRQHPGKGLEWIGHIYQTGQTAYNPNLEGRATISVNTYKNQFSLKLSSVTAADTAVYYCARDYDILTGYSYYYYGMDVWGQGTTVTVSS VL: EIVLTQSPATLSLSPGERATLSCRASQSVSSYLGWYQQKPGQAPRLLIYGASSRATGIPDRFSGSGSGTDFTLTISRLEPEDFAVYYCQQYGSSPRTFGQGTKVEIKR", "Mean IC50 (nM), cAMP antagonist assay": 4.23, "Mean IC50, -fold vs Rimo": 1.41, "n = 1 IC50 (nM), cAMP antagonist assay": 6.63, "n = 1 IC50, -fold vs Rimo": 1.57, "n = 2 IC50 (nM), cAMP antagonist assay": 1.83, "n = 2 IC50, -fold vs Rimo": 1.02}]}]}
